Test results: the emibetuzumab library of Makowski et al. (2022)

B1: VH:VL chains; a variant is named by its letters at X, in order (parent)
chain 1: QVQLVQSGAEVKKPGASVKVSCKASGYTFTDYXMHWVRQAPGQGLEWMGXVNPNXXXTTYNQKFEGRVTMTTDTSTSTAYMELRSLRSDDTAVYYCARXNXLDXWGQGTTVTVSS
chain 2: DIQMTQSPSSLSASVGDRVTITCSVSSSVSSIYLHWYQQKPGKAPKLLIYSTSNLASGVPSRFSGSGSGTDFTLTISSLQPEDFATYYCQVYSGYPLTFGGGTKVEIK

Variants of: B1
Test: yeast display scFab, FACS + sequencing
Procedure, shortened: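 Non-specific binding was called from deep sequencing of sorted yeast cells displaying a heavy-chain CDR mutant scFab library. Cells labelled with anti-Myc and biotinylated ovalbumin (260 μg/mL in PBSB, 3 h, room temperature) or soluble membrane proteins (130 μg/mL, 20 min on ice) were FACS-sorted, collecting the top 25% and bottom 10% of binders from two replicates. A sequence was positive when present in ≥3 of 4 pooled positive samples and absent from all negatives, and negative under the converse rule.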

Variant	non-specific binding call
FRGKGSAD	binds
FRGKGSAV	binds
DRGRDDAA	no binding
FRGKGSGA	binds
FRGKGSGF	binds
FRGKGSGD	binds
FRGKGSGV	binds
YRGKSDGS	binds
VRGKGAVD	binds
FRGRDFAD	binds
YRGGDAAF	no binding
YRGRASVV	binds
VRGRDDGV	no binding
VRGKDSLD	no binding
YRGKSAAV	binds
YRGGDDLY	no binding
YRGGDDLV	no binding
VRGKGSLA	binds
DRGGDDAD	no binding
DRGGDDAA	no binding
DRGGDVSD	binds
YRGGDYLV	no binding
FRGKGASS	binds
FRGKGASV	binds
FRGKGASD	binds

Variant	non-specific binding call
YRGKGSLA	binds
YRGKASVD	binds
YRGKGAGY	binds
YRGKGAGF	binds
FRGGGAVA	binds
FRGGGAVS	binds
FRGKSAAA	binds
YRGGGALS	binds
FRGGGSGS	binds
FRGGGSGV	binds
FRGGGSGF	binds
FRGGGSWA	binds
YRGGGYLV	no binding
YRGGGYGF	binds
YRGKGYAA	binds
YRGGDYGA	no binding
FRGGDSAD	binds
FRGGGSSA	binds
FRGRDAVD	binds
FRGRDAVF	binds
VRGKGSSS	binds
VRGKGSSD	no binding
YRGKASWD	binds
YRGKDALA	binds
VRGGGSAA	binds

Variant	non-specific binding call
DRGKNDGD	no binding
FRGRDALY	binds
YRGGSAGA	binds
YRGGSAGF	binds
DRGRDAWS	no binding
DRGRDAWF	no binding
FRGGGDWD	no binding
VRGRDFGV	binds
YRGKDAGA	binds
YRGKGDGS	binds
VRGRDDVV	no binding
YRGKDSVD	binds
ARGGDDGA	no binding
FRGRASLS	binds
FRGRDFGS	binds
YRGRDAGF	binds
FRGKGFGV	binds
FRGGSVGY	binds
FRGGSAGD	binds
VRGGGVGV	binds
DRGGDDLV	no binding
YRGGGSGS	binds
YRGKGFGS	binds
YRGKGALA	binds
YRGKGALS	binds

Variant	non-specific binding call
FRGGGSLD	binds
DRGRDDVA	no binding
DRGRDDVF	no binding
DRGRDDVD	no binding
DRGRDDVV	no binding
YRGRDASS	no binding
YRGRDASF	no binding
YRGRDASA	binds
YRGGTAAA	binds
YRGKDVGV	binds
DRGGSAGD	no binding
DRGGDSLD	no binding
YRGGGDGF	no binding
YRGKGFVA	binds
YRGKGFVV	binds
FRGGGSAA	binds
VRGGGDWV	no binding
YRGKDAAY	binds
VRGKGSGV	binds
VRGKGSGA	binds
VRGKGSGF	binds
FRGRDDVF	no binding
YRGGGVVD	binds
FRGGGSVS	binds
YRGKAAGD	binds

Variant	non-specific binding call
YRGKAAGV	binds
VRGKGASA	binds
YRGKGAWS	binds
YRGKGAWY	binds
YRGKGAWA	binds
YRGKSALA	binds
FRGKGAVD	binds
FRGKGAVS	binds
YRGKDSGS	binds
YRGKDSGA	binds
SRGGGVGY	binds
FRGGASSD	binds
FRGGDYGS	binds
YRGKGSWS	binds
YRGKGSWA	binds
DRGRDAGD	no binding
DRGRDAGA	no binding
FRGGGVGV	binds
YRGGGSAA	binds
FRGRDDLV	no binding
VRGGDAAS	no binding
